# According to US20240409663A1 (CONCEPT TO MEDICINE BIOTECH, published 2024):
# Numbering of substitutions follows the chain as printed.
# B1: 52H5D3B8-14# chimeric mAb (antibody, V domains shown)
# VH: QVQLQQSGAELVRPGASVKLSCKALGYTFTDYEMHWVKQTPVHGLEWIGAIHPGSGGTAYNQKFKGKATLTADKFSSTGYMELSSLTSEDSAVYYCTRYYSFAYWGQGTLVTVSA
# VL: DVVMTQTPLSLPVSLGDQASISCRSSQSLVHSNGNTYLQWYLQKPGQSPKLLIYKVSNRFSGVPDRFSGSGSGTDFILKISRVEAEDLGVYFCFQSIHVPYTFGGGTKLEIK
# notes: CDR3 mutant of the 52H5D3B8 chimeric mAb (human IgG1)
# B2: 52H5D3B8-5# chimeric mAb (antibody, V domains shown)
# VH: B1 VH
# VL: B1 VL with F94S
# notes: as for B1
# B3: 52H5D3B8-3# chimeric mAb (antibody, V domains shown)
# VH: B1 VH with Y99F, F102Y
# VL: B1 VL
# notes: as for B1
# B4: 52H5D3B8-12# chimeric mAb (antibody, V domains shown)
# VH: B1 VH with F102Y
# VL: B1 VL with I97T
# notes: as for B1
# B5: 52H5D3B8-10# chimeric mAb (antibody, V domains shown)
# VH: B1 VH with Y99F, F102Y
# VL: B1 VL with I97T
# notes: as for B1
# B6: 52H5D3B8-7# chimeric mAb (antibody, V domains shown)
# VH: B1 VH with F102Y
# VL: B1 VL with F94S, I97T
# notes: as for B1
# B7: 52H5D3B8-1# chimeric mAb (antibody, V domains shown)
# VH: B1 VH with F102Y
# VL: B1 VL with F94S
# notes: as for B1
# B8: 52H5D3B8-15# chimeric mAb (antibody, V domains shown)
# VH: B1 VH
# VL: B1 VL with I97T
# notes: as for B1
# B9: 52H5D3B8-2# chimeric mAb (antibody, V domains shown)
# VH: B1 VH with Y99F
# VL: B1 VL with F94S
# notes: as for B1
# B10: 52H5D3B8-13# chimeric mAb (antibody, V domains shown)
# VH: B1 VH
# VL: B1 VL with F94S, I97T
# notes: as for B1
# B11: 52H5D3B8-4# chimeric mAb (antibody, V domains shown)
# VH: B1 VH with Y99F, F102Y
# VL: B1 VL with F94S, I97T
# notes: as for B1
# B12: 52H5D3B8-9# chimeric mAb (antibody, V domains shown)
# VH: B1 VH with Y99F
# VL: B1 VL with F94S, I97T
# notes: as for B1
# B13: 52H5D3B8-11# chimeric mAb (antibody, V domains shown)
# VH: B1 VH with Y99F
# VL: B1 VL with I97T
# notes: as for B1
# B14: 52H5D3B8-8# chimeric mAb (antibody, V domains shown)
# VH: B1 VH with Y99F
# VL: B1 VL
# notes: as for B1
# B15: 172B4E9 mouse monoclonal antibody (antibody, V domains shown)
# VH: QVQLQQSGAELVRPGASVTLSCKASGYTFTDYEIHWVKQTPVHGLEWIGAIDPATGDTAYTQKFKGKAILTADTSSNTVYMELRGLTSEDSAVHFCTRFYSYAYWGQGTLVTVSA
# VL: B1 VL with S32T, N35H, P45S, K50R, Y54F, I77K, F94S, I97T
# notes: mouse hybridoma antibody
# B16: 152E9F7 mouse monoclonal antibody (antibody, V domains shown)
# VH: B15 VH with A54E, T74K, G85S, H94Y, F95Y
# VL: B1 VL with S32T, N35H, P45S, I77T, F94S, I97T
# notes: mouse hybridoma antibody
# B17: 18C1D9 mouse monoclonal antibody (antibody, V domains shown)
# VH: B1 VH with K19T, L25S, T30S, H52D, G54E, S55T, F75S, G79A, S84R, F102Y
# VL: B1 VL with T7S, S26R, I77T, I111K
# notes: mouse hybridoma antibody
# B18: 171F9C5 mouse monoclonal antibody (antibody, V domains shown)
# VH: QVQLQQSGAELVRPGASVTLSCKASGYTFTDYEIHWVKQTPVHGLEWIGAIDPETDNTAYSQKFKGKAILTADKSSSTAYMELRSLTSEDSAVYYCTRYYSYAYWGQGTLVTVSA
# VL: B1 VL with L29P, S32R, Q39H, Y54F, I77T, E84A, F94S, S96T, I97T
# notes: mouse hybridoma antibody
# B19: 52H5D3B8 mouse monoclonal antibody (antibody, V domains shown)
# VH: B1 VH with Y99F, F102Y
# VL: B1 VL with F94S
# notes: mouse hybridoma antibody
# B20: 163E7D12 mouse monoclonal antibody (antibody, V domains shown)
# VH: B18 VH with I34M, D52G, D56G, N57S, S61N, K63R, L70V, Y102F
# VL: B1 VL with D17G, Y54F, I77T
# notes: mouse hybridoma antibody
# Target: T1, human GPC3-his tag protein (human, UniProt P51654 25-559, limits assumed)
# T1 construct: recombinant soluble antigen used as analyte in all Biacore runs; also called recombinant GPC3 protein; rhGPC3-His; not shown: His tag
# Assay: SPR Biacore 8K, mAb captured, one or two doses GPC3-his
# Protocol: The binding of the optimized antibodies of 52H5D3B8 mAb to human GPC3-his was tested with Biacore using a capture method. A single dose or two doses of human GPC3-his tag protein was injected over captured antibody. All the experiments were carried out on a Biacore 8K. Data analysis was carried out using Biacore 8K evaluation software.
Kd [nM],koff [s⁻¹],kon [M⁻¹ s⁻¹],Binder
1.53,0.000737,481000,B1
4.12,0.000412,100000,B2
1.06,0.000556,525000,B3
5.56,0.00133,240000,B4
4.05,0.00118,291000,B5
3.97,0.000617,155000,B6
0.74,0.000288,390000,B7
28.2,0.00755,267000,B8
5.31,0.00121,228000,B9
28.9,0.00143,49600,B10
1.72,0.000578,335000,B11
12.9,0.00216,167000,B12
10.9,0.00354,326000,B13
2.03,0.001,494000,B14

# Target: T2, human GPC3 on cells (human, UniProt P51654 25-554)
# T2 construct: whole, on cells; over-expressed on CHOK1 cells or endogenous on HEPG2, Hep3B and Huh-7 hepatocellular carcinoma cells; the cell line is named under assay; also called GPC3-CHOK1 cells; human GPC3 over-expressed CHOK1 cells
# Assay: FACS, GPC3-CHOK1 cells
# Protocol: Briefly, GPC3-CHOK1 cells were firstly incubated with Fc blocking reagent at 4° C. for 15 mins. Cells were washed by FACS buffer and divided to each well with 3-fold serially diluted 52H5D3B8, 52H5D3B8-1 #, 52H5D3B8-2 #, 52H5D3B8-3 #, 52H5D3B8-4 #, 52H5D3B8-5 #, 52H5D3B8-6 #, 52H5D3B8-7 #, 52H5D3B8-8 #, 52H5D3B8-9 #, 52H5D3B8-10 #, 52H5D3B8-11 #, 52H5D3B8-12 #, 52H5D3B8-13 #, 52H5D3B8-14 # and 52H5D3B8-15# chimeric mAbs starting at 30 μg/mL at 4° C. for 60 mins. Cells were washed by FACS buffer and fixed with 2% PFA at RT for 15 mins. […] Samples were washed twice with FACS buffer.
row,EC50 [µg/mL],Binder
1,0.0895,B1
2,0.405,B2
3,0.0869,B3
4,0.235,B4
5,0.176,B5
6,0.232,B6
7,0.104,B7
8,0.15,B8
9,0.149,B9
10,1.55,B10
11,0.0986,B11
12,0.247,B12
13,0.104,B13
14,0.0919,B14

# Target: T1, human GPC3-his tag protein
# Assay: SPR Biacore 8K, mAb captured on CM5, single dose GPC3-his
# Protocol: The binding of mouse monoclonal antibodies to human GPC3-his was tested with Biacore using a capture method. The antibodies were captured using CM5 sensor chip. A single dose of human GPC3-his tag protein was injected over captured antibody for 2 mins at a flow rate of 30 μl/min. The antigen was allowed to dissociate for 360 s. All the experiments were carried out on a Biacore 8K. Data analysis was carried out using Biacore 8K evaluation software.
Kd [nM],koff [s⁻¹],kon [M⁻¹ s⁻¹],Binder
0.446,9.01e-05,202000,B15
0.881,0.000162,184000,B16
1.57,0.000412,262000,B17
1.22,0.000199,162000,B18
1.39,0.000317,228000,B19
0.755,0.000169,223000,B20
